In PMC4694755 (Molecular Biology of the Cell, 2016):

Biological target: Mouse importin β (mouse, UniProt P70168 1-876)
Assay: SPR

Sequence of Mouse importin β (P70168 whole entry): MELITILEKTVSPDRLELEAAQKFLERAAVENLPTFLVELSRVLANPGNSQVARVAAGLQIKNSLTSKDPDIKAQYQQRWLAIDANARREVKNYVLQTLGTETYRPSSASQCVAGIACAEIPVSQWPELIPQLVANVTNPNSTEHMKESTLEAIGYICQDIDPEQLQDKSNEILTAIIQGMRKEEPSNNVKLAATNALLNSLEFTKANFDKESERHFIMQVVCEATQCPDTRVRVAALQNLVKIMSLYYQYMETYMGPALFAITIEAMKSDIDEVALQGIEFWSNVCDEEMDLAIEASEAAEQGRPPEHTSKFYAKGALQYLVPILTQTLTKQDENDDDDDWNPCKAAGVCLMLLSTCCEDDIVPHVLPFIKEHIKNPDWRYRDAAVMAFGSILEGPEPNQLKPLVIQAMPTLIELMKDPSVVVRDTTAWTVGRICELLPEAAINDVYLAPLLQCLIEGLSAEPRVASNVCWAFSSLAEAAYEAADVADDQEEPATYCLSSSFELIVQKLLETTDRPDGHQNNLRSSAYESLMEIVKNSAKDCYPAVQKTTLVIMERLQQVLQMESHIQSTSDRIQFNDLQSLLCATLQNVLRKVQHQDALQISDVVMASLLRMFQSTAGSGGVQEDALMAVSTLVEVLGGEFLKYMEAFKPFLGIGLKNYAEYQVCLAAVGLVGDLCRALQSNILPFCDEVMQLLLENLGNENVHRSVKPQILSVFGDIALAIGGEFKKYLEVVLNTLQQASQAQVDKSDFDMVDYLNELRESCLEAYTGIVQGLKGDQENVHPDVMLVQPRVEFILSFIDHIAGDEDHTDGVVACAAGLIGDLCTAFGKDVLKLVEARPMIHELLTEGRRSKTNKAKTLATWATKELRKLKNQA

B1: importin β–binding domain of rat importin α (IBB, amino acids 1–66) (domain or fragment)
chain: not shown
- koff: 0.00132 s⁻¹
- kon: 99400 M⁻¹ s⁻¹
